Measurements from US10618965 (dated 2020).

Target: T1, mouse FcRn (mouse, UniProt Q61559)
T1 chain 1: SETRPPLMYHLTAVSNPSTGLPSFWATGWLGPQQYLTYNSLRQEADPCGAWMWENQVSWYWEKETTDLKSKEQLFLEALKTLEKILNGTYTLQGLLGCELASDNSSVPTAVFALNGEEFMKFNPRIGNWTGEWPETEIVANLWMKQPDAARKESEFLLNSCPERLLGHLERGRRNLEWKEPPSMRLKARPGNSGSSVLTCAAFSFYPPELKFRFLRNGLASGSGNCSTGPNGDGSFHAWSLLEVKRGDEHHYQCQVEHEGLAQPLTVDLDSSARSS
T1 chain 2: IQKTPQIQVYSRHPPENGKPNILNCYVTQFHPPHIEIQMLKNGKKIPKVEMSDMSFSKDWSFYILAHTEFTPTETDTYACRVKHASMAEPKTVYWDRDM
Assay: SPR, pH 7.0

B1: mIgG1 (antibody)
chain 1: DVQLQESGPVLVKPSQSLSLTCTVTGYSITSDHAWSWIRQFPGNKLEWMGYISYSGITTYNPSLKSRISITRDTSKNQFFLQLNSVTTGDTSTYYCARSLARTTAMDYWGQGTSVTVSSAKTTPPSVYPLAPGSAAQTNSMVTLGCLVKGYFPEPVTVTWNSGSLSSGVHTFPAVLQSDLYTLSSSVTVPSSTWPSETVTCNVAHPASSTKVDKKIVPRDCGCKPCICTVPEVSSVFIFPPKPKDVLTITLTPKVTCVVVDISKDDPEVQFSWFVDDVEVHTAQTQPREEQFNSTFRSVSELPIMHQDWLNGKEFKCRVNSAAFPAPIEKTISKTKGRPKAPQVYTIPPPKEQMAKDKVSLTCMITDFFPEDITVEWQWNGQPAENYKNTQPIMDTDGSYFVYSKLNVQKSNWEAGNTFTCSVLHEGLHNHHTEKSLSHSPGK
chain 2: not shown
binding result: no binding
